Source: the Human Domainome abundance scans (Beltran et al. 2025)
± gives the uncertainty stated by the source.

B1: POU domain, class 4, transcription factor 3, residues 185 to 256; numbered along this chain, Q15319 (parent)
chain: RELEAFAERFKQRRIKLGVTQADVGAALANLKIPGVGSLSQSTICRFESLTLSHNNMIALKPVLQAWLEEAE

Variants of: B1
Assay: abundance fitness (aPCA) (normalised: wild type 0, dead -1); higher = more abundant; growth selection in yeast, the domain comes from the species named
Details: Homo sapiens

Abundance fitness, by site and new letter:
L60: R -0.845 ± 0.25
S49: D 0.067 ± 0.071; Y -0.209 ± 0.15; R -0.136 ± 0.066; Q -0.027 ± 0.075; N -0.005 ± 0.13; H -0.033 ± 0.096; P -0.957 ± 0.14; K -0.039 ± 0.1; C -0.127 ± 0.12; A 0.016 ± 0.065; F -0.515 ± 0.11; W -0.884 ± 0.31; E 0.102 ± 0.071; G -0.138 ± 0.057; T 0.037 ± 0.06; V -0.718 ± 0.11; M -0.117 ± 0.11
A71: I -0.178 ± 0.037; E -0.103 ± 0.05; N -0.032 ± 0.036; R -0.005 ± 0.043; G -0.226 ± 0.03; V -0.073 ± 0.036; K 0.002 ± 0.027; D -0.574 ± 0.12; M -0.106 ± 0.026; Y -0.064 ± 0.041; F -0.139 ± 0.034; W -0.281 ± 0.056; S -0.108 ± 0.039; T -0.085 ± 0.062
Q65: G 0.011 ± 0.14; V -0.085 ± 0.21; C -0.1 ± 0.21; H -0.076 ± 0.2; S -0.127 ± 0.3; L -0.486 ± 0.17; K -0.011 ± 0.41; R -0.252 ± 0.16; D -0.065 ± 0.15
F47: M -0.543 ± 0.09; Q -0.875 ± 0.13; G -1.01 ± 0.23; W -0.508 ± 0.066; P -1.02 ± 0.13; S -0.747 ± 0.081; A -0.866 ± 0.14; N -1.09 ± 0.27; C -0.982 ± 0.15; H -1.06 ± 0.33; V -0.718 ± 0.1; T -0.94 ± 0.19; I -0.836 ± 0.17
V63: A -0.135 ± 0.095; G -0.545 ± 0.06; W -0.022 ± 0.094; T -0.254 ± 0.11; Q -0.34 ± 0.094; F -0.181 ± 0.15; K -0.35 ± 0.34; D -0.585 ± 0.27; M -0.085 ± 0.093; I 0.055 ± 0.051; H 0.019 ± 0.14; R -0.157 ± 0.049; S -0.162 ± 0.12; P -0.161 ± 0.087
L68: I -0.056 ± 0.069; N -0.912 ± 0.12; V -0.13 ± 0.026; Y -0.287 ± 0.052; R -0.96 ± 0.068; P -1.06 ± 0.14; D -0.872 ± 0.078; Q -0.497 ± 0.047; E -0.503 ± 0.042; A -0.287 ± 0.032; F -0.585 ± 0.067; T -0.46 ± 0.038; G -0.685 ± 0.042; K -0.901 ± 0.054; C -0.257 ± 0.072; M -0.056 ± 0.031; W -0.574 ± 0.041
A59: S -0.514 ± 0.4; G -0.085 ± 0.18; L -0.393 ± 0.39
L50: D -0.139 ± 0.3; G 0.043 ± 0.034; Q 0.124 ± 0.07; S 0.041 ± 0.22; A 0.068 ± 0.039; P -1.02 ± 0.14; W -0.717 ± 0.21; R 0.053 ± 0.03; T -0.101 ± 0.027; K -0.012 ± 0.073; E -0.154 ± 0.063
P62: C -0.565 ± 0.053; H -0.109 ± 0.12; M -0.56 ± 0.046; K -0.177 ± 0.052; L -0.53 ± 0.028; N -0.371 ± 0.094; V -0.378 ± 0.033; W -0.689 ± 0.047; S -0.188 ± 0.031; A -0.376 ± 0.043; D -0.413 ± 0.081; I -0.753 ± 0.1; T -0.221 ± 0.042; R -0.376 ± 0.036; E -0.23 ± 0.049; Q -0.393 ± 0.049; G -0.244 ± 0.036; F -0.461 ± 0.058
E70: Q -0.084 ± 0.055; I -0.348 ± 0.054; H -0.014 ± 0.064; C -0.271 ± 0.045; L -0.323 ± 0.029; F -0.397 ± 0.043; S -0.034 ± 0.032; R -0.036 ± 0.033; D -0.118 ± 0.069; K -0.03 ± 0.053; A -0.098 ± 0.042; M -0.253 ± 0.048; G -0.095 ± 0.039; N 0.114 ± 0.056; V -0.307 ± 0.036; W -0.29 ± 0.038; Y -0.245 ± 0.06
E72: G -0.278 ± 0.037; F -0.63 ± 0.043; A -0.31 ± 0.03; W -0.325 ± 0.037; Y -0.544 ± 0.054; L -0.363 ± 0.024; Q -0.263 ± 0.042; R -0.526 ± 0.035; K -0.384 ± 0.052; N -0.192 ± 0.057; V -0.265 ± 0.025; S -0.153 ± 0.028; D -0.111 ± 0.042; C -0.175 ± 0.051; M -0.36 ± 0.038; T -0.219 ± 0.043; H -0.378 ± 0.053
N55: S -0.061 ± 0.23; Y -0.161 ± 0.2
K61: I -0.128 ± 0.069; P -1.12 ± 0.18; L -0.217 ± 0.044; Q -0.222 ± 0.11; H -0.105 ± 0.062; M 0.02 ± 0.1; N -0.658 ± 0.092; T -0.061 ± 0.058; Y -0.038 ± 0.058; F -0.36 ± 0.055
H54: P 0.102 ± 0.28; Y -0.027 ± 0.38
L52: M -0.55 ± 0.47; P -0.984 ± 0.49
